{"source": "the RNAGym collection of RNA variant scans (doi:10.1093/molbev/msab373)", "parents": {"B1": {"name": "Azoarcus group I ribozyme (parent)", "chain": "GUGCCUUGCGCCGGGAAACCACGCAAGGGAUGGUGUCAAAUUCGGCGAAACCUAAGCGCCCGCCCGGGCGUAUGGCAACGCCGAGCCAAGCUUCGGCGCCUGCGCCGAUGAAGGUGUAGAGACUAGACGGCACCCACCUAAGGCAAACGCUAUGGUGAAGGCAUAGUCCAGGGAGUGGCGAAAGUCACACAAACCGG"}}}
{"variants_of": "B1", "experiment": "reverse-splicing fitness (ratio to wild type); higher = more active; in vitro selection; Mg2+ level not given", "procedure,_shortened": "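An in vitro group I ribozyme library with randomized positions was T7-transcribed and gel-purified. In triplicate, 10 pmol RNA in EPPS pH 7.5 was reacted with 50 pmoles of a 30-nt RNA substrate for 1 h at 37 °C across several added MgCl2 levels (1–48 mM), then stopped with EDTA. Products were reverse transcribed from a substrate-complementary primer, PCR-amplified and sequenced (HiSeq 4000). Fitness is a variant's read proportion after selection over that before, normalised to wild type.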"}
{"variant": "C82A A111U A120G C150A C169G", "reverse-splicing fitness": 0.0102}
{"variant": "C82A A111U A120G C150A C169U", "reverse-splicing fitness": 0.00869}
{"variant": "C82A A111U A120G C150A C169A", "reverse-splicing fitness": 0.0108}
{"variant": "C82A A111U A120G A145G C169U U176C", "reverse-splicing fitness": 0.0167}
{"variant": "C82A A111U A120G A145G C169U U176A", "reverse-splicing fitness": 0.0211}
{"variant": "C82A A111U A120G A145G C169U U176G", "reverse-splicing fitness": 0.00504}
{"variant": "C82A A111U A120G A145G C150G C169A", "reverse-splicing fitness": 0.0092}
{"variant": "C82A A111U A120G A145G C150G C169U", "reverse-splicing fitness": 0.00901}
{"variant": "C82A A111U A120G A145G C150G C169G", "reverse-splicing fitness": 0.00797}
{"variant": "C82A A111U A120G A145U C150G C169A U176G", "reverse-splicing fitness": 0.00552}
{"variant": "C82A A111U A120G A145U C150G C169A U176A", "reverse-splicing fitness": 0.0086}
{"variant": "C82A A111U A120G A145U C150G C169A U176C", "reverse-splicing fitness": 0.00995}
{"variant": "C82A A111U A120G A145U C150U C169G", "reverse-splicing fitness": 0.0104}
{"variant": "C82A A111U A120G A145U C150U C169A", "reverse-splicing fitness": 0.0101}
{"variant": "C82A A111U A120G A145U C150U C169U", "reverse-splicing fitness": 0.00891}
{"variant": "C82A A111U A120G A145U C150A U176A", "reverse-splicing fitness": 0.0128}
{"variant": "C82A A111U A120G A145U C150A U176C", "reverse-splicing fitness": 0.0152}
{"variant": "C82A A111U A120G A145U C150A U176G", "reverse-splicing fitness": 0.00656}
{"variant": "C82A A111U A120G C150G C169U U176G", "reverse-splicing fitness": 0.00618}
{"variant": "C82A A111U A120G C150G C169U U176C", "reverse-splicing fitness": 0.0145}
{"variant": "C82A A111U A120G C150G C169U U176A", "reverse-splicing fitness": 0.01}
{"variant": "C82A A111U A120G A145U C150A C169U U176A", "reverse-splicing fitness": 0.0193}
{"variant": "C82A A111U A120G A145U C150A C169U U176G", "reverse-splicing fitness": 0.00491}
{"variant": "C82A A111U A120G A145U C150A C169U U176C", "reverse-splicing fitness": 0.0164}
{"variant": "C82A A111U A120G A145G C169G", "reverse-splicing fitness": 0.0107}
{"variant": "C82A A111U A120G A145G C169U", "reverse-splicing fitness": 0.00913}
{"variant": "C82A A111U A120G A145G C169A", "reverse-splicing fitness": 0.00997}
{"variant": "C82A A111U A120G C150U C169A", "reverse-splicing fitness": 0.0106}
{"variant": "C82A A111U A120G C150U C169U", "reverse-splicing fitness": 0.00932}
{"variant": "C82A A111U A120G C150U C169G", "reverse-splicing fitness": 0.0105}
{"variant": "C82A A111U A120G A145U U176A", "reverse-splicing fitness": 0.0132}
{"variant": "C82A A111U A120G A145U U176G", "reverse-splicing fitness": 0.00522}
{"variant": "C82A A111U A120G A145U U176C", "reverse-splicing fitness": 0.0145}
{"variant": "C82A A111U A120G A145U C150U U176A", "reverse-splicing fitness": 0.0102}
{"variant": "C82A A111U A120G A145U C150U U176G", "reverse-splicing fitness": 0.00672}
{"variant": "C82A A111U A120G A145U C150U U176C", "reverse-splicing fitness": 0.0151}
{"variant": "C82A A111U A120G C150G C169G U176A", "reverse-splicing fitness": 0.00798}
{"variant": "C82A A111U A120G C150G C169G U176G", "reverse-splicing fitness": 0.00446}
{"variant": "C82A A111U A120G C150G C169G U176C", "reverse-splicing fitness": 0.0044}
{"variant": "C82A A111U A120G A145G C150G C169U U176C", "reverse-splicing fitness": 0.013}
{"variant": "C82A A111U A120G A145G C150G C169U U176A", "reverse-splicing fitness": 0.0121}
{"variant": "C82A A111U A120G A145G C150G C169U U176G", "reverse-splicing fitness": 0.00707}
{"variant": "C82A A111U A120G C150U U176G", "reverse-splicing fitness": 0.00825}
{"variant": "C82A A111U A120G C150U U176A", "reverse-splicing fitness": 0.0109}
{"variant": "C82A A111U A120G C150U U176C", "reverse-splicing fitness": 0.0178}
{"variant": "C82A A111U A120G C150U C169A U176C", "reverse-splicing fitness": 0.0163}
{"variant": "C82A A111U A120G C150U C169A U176A", "reverse-splicing fitness": 0.0156}
{"variant": "C82A A111U A120G C150U C169A U176G", "reverse-splicing fitness": 0.00525}
{"variant": "C82A A111U A120G C150G", "reverse-splicing fitness": 0.00697}
{"variant": "C82A A111U A120G C150A", "reverse-splicing fitness": 0.0106}
{"variant": "C82A A111U A120G C150U", "reverse-splicing fitness": 0.0133}
{"variant": "C82A A111U A120G A145U C169G U176G", "reverse-splicing fitness": 0.00437}
{"variant": "C82A A111U A120G A145U C169G U176C", "reverse-splicing fitness": 0.014}
{"variant": "C82A A111U A120G A145U C169G U176A", "reverse-splicing fitness": 0.0119}
{"variant": "C82A A111U A120G A145U C150G C169U U176G", "reverse-splicing fitness": 0.00545}
{"variant": "C82A A111U A120G A145U C150G C169U U176A", "reverse-splicing fitness": 0.0104}
{"variant": "C82A A111U A120G A145U C150G C169U U176C", "reverse-splicing fitness": 0.0125}
{"variant": "C82A A111U A120G A145G C150G C169A U176G", "reverse-splicing fitness": 0.00821}
{"variant": "C82A A111U A120G A145G C150G C169A U176A", "reverse-splicing fitness": 0.0132}
{"variant": "C82A A111U A120G A145G C150G C169A U176C", "reverse-splicing fitness": 0.0133}
{"variant": "C82A A111U A120G A145G C150U C169A", "reverse-splicing fitness": 0.0106}
{"variant": "C82A A111U A120G A145G C150U C169G", "reverse-splicing fitness": 0.0105}
{"variant": "C82A A111U A120G A145G C150U C169U", "reverse-splicing fitness": 0.0104}
{"variant": "C82A A111U A120G A145G C150G C169G U176A", "reverse-splicing fitness": 0.0109}
{"variant": "C82A A111U A120G A145G C150G C169G U176G", "reverse-splicing fitness": 0.00619}
{"variant": "C82A A111U A120G A145G C150G C169G U176C", "reverse-splicing fitness": 0.0107}
{"variant": "C82A A111U A120G A145U", "reverse-splicing fitness": 0.0153}
{"variant": "C82A A111U A120G A145U C150A C169G U176A", "reverse-splicing fitness": 0.0146}
{"variant": "C82A A111U A120G A145U C150A C169G U176G", "reverse-splicing fitness": 0.00492}
{"variant": "C82A A111U A120G A145U C150A C169G U176C", "reverse-splicing fitness": 0.0161}
{"variant": "C82A A111U A120G A145G U176A", "reverse-splicing fitness": 0.0122}
{"variant": "C82A A111U A120G A145G U176C", "reverse-splicing fitness": 0.0211}
{"variant": "C82A A111U A120G A145G U176G", "reverse-splicing fitness": 0.00714}
{"variant": "C82A A111U A120G A145G C150U C169U U176C", "reverse-splicing fitness": 0.0156}
{"variant": "C82A A111U A120G A145G C150U C169U U176G", "reverse-splicing fitness": 0.00618}
{"variant": "C82A A111U A120G A145G C150U C169U U176A", "reverse-splicing fitness": 0.0181}
{"variant": "C82A A111U A120G A145U C150U C169A U176G", "reverse-splicing fitness": 0.0057}
{"variant": "C82A A111U A120G A145U C150U C169A U176C", "reverse-splicing fitness": 0.0139}
{"variant": "C82A A111U A120G A145U C150U C169A U176A", "reverse-splicing fitness": 0.0139}
{"variant": "C82A A111U A120G A145G C150G", "reverse-splicing fitness": 0.00699}
{"variant": "C82A A111U A120G A145G C150U", "reverse-splicing fitness": 0.0133}
{"variant": "C82A A111U A120G A145G C150U U176A", "reverse-splicing fitness": 0.00963}
{"variant": "C82A A111U A120G A145G C150U U176G", "reverse-splicing fitness": 0.00803}
{"variant": "C82A A111U A120G A145G C150U U176C", "reverse-splicing fitness": 0.0178}
